Laboratory results as given in US20090004675A1, “Method of Identifying Compounds for Bacterial Growth Modulation” (priority 2004, published 2009).

Experiments:
E. coli β clamp = E. coli β clamp (Escherichia coli, UniProt P0A988); details: E. coli β labeled with Oregon Green or rhodamine-labeled peptide; Kd only in FIG. 1A
Text: The assays corresponding to the data in the Table of FIG. 1A, use E. coli β labeled with an Oregon Green fluorophore. Peptides of various polymerases were titrated into the labeled β, and the Kd values were obtained from the resulting fluorescent intensity changes. All other plots utilize rhodamine-labeled polymerase peptide from E. coli α (FIG. 1A), S. pyogenes Pol C (FIG. 1B), S. aureus Pol C (FIG. 1C). β clamp from the organisms indicated are titrated into the fluorescent peptide.
A rhodamine-labeled 20 mer peptide corresponds to the sequence of the C-terminal 20 residues of E. coli Pol III α subunit. […] A plot of the fluorescence change with beta concentration provides a Kd value for the interaction between these molecules (FIG. 1A).

S. pyogenes β = experiment: Binding of rhodamine-labeled polymerase C-terminal peptides to β clamp; design: species or system Streptococcus pyogenes; details: β titrated in
Method: This assay has also been examined using Streptococcus pyogenes β and rhodamine labeled peptides corresponding to C-terminal residues of Streptococcus pyogenes Pol C and E. coli Pol III. […] The C-terminal peptide corresponding to Staphylococcus aureus Pol C was also tested for binding to these β clamps (FIG. 1C).

[1] = target: E. coli DNA polymerase III replicase (Escherichia coli, UniProt P0A988); details: primed M13mp18 ssDNA coated with SSB
Method: Assays were performed using primed M13mp18 ssDNA coated with SSB as substrate. Each reaction was 25 μl and contained 72 ng primed M13mp18 ssDNA, 1 μg SSB, 0.1 mM MgCl2, 20 mM TrisHCl (pH 7.5), 0.1 mM EDTA, 5 mM DTT, 40 μg/ml BSA, 4% glycerol, […], 2 mM ATP, 60 μM each of dCTP, dATP, dGTP and 20 μM α^32-P dTTP. Replicases consisted of the following for each E. coli, S. pyogenes, and S. aureus: 50 ng Pol III core (E. coli) or Pol C (S. pyogenes and S. aureus), 200 ng τ, 20 ng δδ′ and 40 ng β. Peptides, when present, were added to the indicated concentration. Reactions were assembled on ice in the absence of the polymerase, then shifted to 37° C. for 3 min before initiating synthesis by addition of the polymerase. Reactions were incubated a further 3 min prior to quenching and quantitation of synthesis.

[2] = tested on: S. pyogenes PolC holoenzyme; experiment: Replicase DNA synthesis assay on primed M13mp18 ssDNA, with peptides; assay type: biochemical, Streptococcus pyogenes; details: primed M13mp18 ssDNA coated with SSB
Method: (§1) Peptides, when present, were added to the indicated concentration.

[3] = target: T1, S. aureus Pol C holoenzyme (Staphylococcus aureus, UniProt P0A024); experiment: as above; assay type: biochemical; details: primed M13mp18 ssDNA coated with SSB
T1 construct: made in house
T1 sequence (P0A024 1-377): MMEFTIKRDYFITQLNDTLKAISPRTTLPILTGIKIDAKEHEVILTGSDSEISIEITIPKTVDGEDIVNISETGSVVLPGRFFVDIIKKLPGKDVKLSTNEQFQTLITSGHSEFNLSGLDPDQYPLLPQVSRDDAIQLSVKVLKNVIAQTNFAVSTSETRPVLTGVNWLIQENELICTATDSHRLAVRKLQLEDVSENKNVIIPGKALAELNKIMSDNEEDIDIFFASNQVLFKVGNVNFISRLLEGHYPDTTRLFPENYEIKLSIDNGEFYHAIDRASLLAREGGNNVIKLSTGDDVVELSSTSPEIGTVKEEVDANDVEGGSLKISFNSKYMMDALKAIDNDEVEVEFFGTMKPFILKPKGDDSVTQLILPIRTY
Method: as §1

Sequence of E. coli DNA polymerase III replicase (P0A988 whole entry): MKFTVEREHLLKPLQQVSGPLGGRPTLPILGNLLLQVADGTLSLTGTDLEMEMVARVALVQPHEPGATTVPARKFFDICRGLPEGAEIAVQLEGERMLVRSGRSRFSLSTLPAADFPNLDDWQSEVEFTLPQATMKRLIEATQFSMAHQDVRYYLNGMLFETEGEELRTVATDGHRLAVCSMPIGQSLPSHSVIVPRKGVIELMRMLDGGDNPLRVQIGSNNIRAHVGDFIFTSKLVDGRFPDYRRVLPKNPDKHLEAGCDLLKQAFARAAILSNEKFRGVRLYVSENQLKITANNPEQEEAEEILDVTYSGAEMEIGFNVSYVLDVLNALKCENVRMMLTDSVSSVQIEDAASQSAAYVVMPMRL
Sequence of E. coli β clamp (P0A988 whole entry): as above

| Substance | binding of peptide to E. coli β clamp (E. coli β clamp) | binding of peptide to S. pyogenes β (S. pyogenes β) | inhibition of DNA synthesis by E. coli DNA polymerase III replicase [1] | inhibition of DNA synthesis by S. pyogenes PolC holoenzyme [2] | inhibition of DNA synthesis by S. aureus Pol C holoenzyme [3] |
| --- | --- | --- | --- | --- | --- |
| S. pyogenes Pol C peptide: C-terminal residues of Streptococcus pyogenes Pol C; DEMGILGNMPEDNQLSLFDDFF (SEQ ID NO: 15) (Streptococcus pyogenes) | binds | bound | inhibit DNA synthesis | inhibit DNA synthesis | inhibit DNA synthesis |
| S. aureus Pol C peptide: C-terminal peptide of Staphylococcus aureus Pol C; DELGSLPNLPDKAQLSIFDM (SEQ ID NO: 13) (listed as Staphylococcus aureus) | binds | bound | inhibit DNA synthesis | inhibit DNA synthesis | inhibit DNA synthesis |
